Experimental data taken from patent US20090075291A1, “PEPTIDE-BASED REGULATION OF GAP JUNCTIONS” (The Research Foundation of State University of New York, priority 2006, published 2009).

Target: Recombinant Cx43CT (carboxyl terminal domain of rat connexin43, residues 255-382, preceded by GPLG) (rat) (UniProt P08050)
Test: SPR, peptide 1.0 mM

Sequence of Recombinant Cx43CT (carboxyl terminal domain of rat connexin43, residues 255-382, preceded by GPLG) (rat) (P08050 other isoform, or with tags, fused parts or gaps limits assumed): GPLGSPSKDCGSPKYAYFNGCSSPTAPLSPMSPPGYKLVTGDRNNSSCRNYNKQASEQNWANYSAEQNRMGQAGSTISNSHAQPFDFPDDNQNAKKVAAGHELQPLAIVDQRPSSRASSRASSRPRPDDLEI

Response Dose (arbitrary units): 4.6
Substance: Peptide 2502, AcRNP-NH2
